Results reported in patent US10526371B2, “Hydrogel-forming peptides” (Universiteit Gent, priority 2015, dated 2020).
Numbered stars: 1 amine (or outer) side, 2 acyl side, 3 side chain; on linkers, the order of the positions; unused ones are H or OH. Square brackets hold non-standard residues; d marks the D form. β3hCha = beta-3-homo-cyclohexylalanine, O=C(C[C@H](CC1CCCCC1)N[*:1])[*:2]; β3hW = N[C@H](CC(=O)O)Cc1c[nH]c2ccccc12; β3hF = N[C@H](CC(=O)O)Cc1ccccc1

Assay: Peptide self-assembly / gelation conditions
Type: physicochemical
Details: for time of gelation (self-supporting gel formed) / gelation condition: TFA salt; for time of gelation (self-supporting gel formed): at its own gelation condition
Protocol: Peptide self-assembly was analyzed in i) a PBS solution (10 mM), ii) a PBS/mQ mixture (1:1 v:v, mQ water with a resistivity of […]) or iii) a NaCl aqueous solution (150 mM). The TFA salt of reference peptide SEQ NO. 23 (1 mg) was dissolved in 50 μl mQ water, followed by the addition of 50 μl PBS solution. This mixture was left to rest overnight, resulting in a 1% w/v hydrogel. The TFA salt of mixed α/β-peptides SEQ ID NO 1 and SEQ ID NO 2 (2 mg) was dissolved in mQ (100 μL) and PBS/mQ mixture (100 μL), respectively. […] The TFA salt of mixed α/β-peptide SEQ ID NO 3 (3 mg) was dissolved in PBS (100 μL) to probe gelation. All self-assembled gels were analyzed by circular dichroism (CD) and Fourier transform infrared (FT-IR) spectroscopy, as well as cryogenic transmission electron microscopy (Cryo-TEM).
(SEQ ID NO:22 (=10-mer)), 100 μl mQ water was added to 2 mg of TFA-salt of pure peptide, then vortexed and sonicated. As a result, a transparent self-supporting gel was formed immediately. A gelation condition of 2 w/v % in mQ water was found.
for H-Fβ^2hFEFQFK-NH2 (SEQ ID NO:19), 100 μl of PBS was added to 2 mg of TFA-salt of pure peptide, then vortexed and sonicated. After overnight resting, a self-supporting gel was formed. A gelation condition of 2 w/v % in PBS was determined.

For “H-Phe-β^3hPhe-Glu-Phe-Gln-Phe-Lys-NH2 (H-F[β3hF]EFQFK-NH2; SMILES NCCCC[C@H](NC(=O)[C@H](Cc1ccccc1)NC(=O)[C@H](CCC(N)=O)NC(=O)[C@H](Cc1ccccc1)NC(=O)[C@H](CCC(=O)O)NC(=O)C[C@H](Cc1ccccc1)NC(=O)[C@@H](N)Cc1ccccc1)C(N)=O) [SEQ ID NO 19]”, the “time of gelation (self-supporting gel formed)” value was “overnight”, the gelation condition (in PBS) was 2 w/v % and the “Gelation condition % (w/v)” value (in PBS) was 2% (PBS) % (w/v).
With “H-Trp-Glu-β^3hTrp-Trp-Gln-Trp-Lys-NH2 (H-WE[β3hW]WQWK-NH2; SMILES NCCCC[C@H](NC(=O)[C@H](Cc1c[nH]c2ccccc12)NC(=O)[C@H](CCC(N)=O)NC(=O)[C@H](Cc1c[nH]c2ccccc12)NC(=O)C[C@H](Cc1c[nH]c2ccccc12)NC(=O)[C@H](CCC(=O)O)NC(=O)[C@@H](N)Cc1c[nH]c2ccccc12)C(N)=O) [SEQ ID NO 14]” the “Gelation condition % (w/v)” value (in mQ/PBS 1:0.5) was 1.5% (mQ/PBS 1:0.5) % (w/v).
In the case of “H-Phe-Glu-β^3hPhe-Phe-Lys-OH (H-FE[β3hF]FK-OH; SMILES NCCCC[C@H](NC(=O)[C@H](Cc1ccccc1)NC(=O)C[C@H](Cc1ccccc1)NC(=O)[C@H](CCC(=O)O)NC(=O)[C@@H](N)Cc1ccccc1)C(=O)O) [SEQ ID NO 7]”, the “Gelation condition % (w/v)” value (in mQ) is reported as 3% (mQ) % (w/v).
In the case of “H-Phe-Glu-β^3hPhe-Phe-Gln-Phe-Lys-NH2 (H-FE[β3hF]FQFK-NH2; SMILES NCCCC[C@H](NC(=O)[C@H](Cc1ccccc1)NC(=O)[C@H](CCC(N)=O)NC(=O)[C@H](Cc1ccccc1)NC(=O)C[C@H](Cc1ccccc1)NC(=O)[C@H](CCC(=O)O)NC(=O)[C@@H](N)Cc1ccccc1)C(N)=O) [SEQ ID NO 13]”, the “Gelation condition % (w/v)” value (in PBS) is reported as 2% (PBS) % (w/v).
With “H-Glu-β^3hPhe-Phe-Lys-β^3hPhe-Phe-NH2 (H-E[β3hF]FK[β3hF]F-NH2; SMILES NCCCC[C@H](NC(=O)[C@H](Cc1ccccc1)NC(=O)C[C@H](Cc1ccccc1)NC(=O)[C@@H](N)CCC(=O)O)C(=O)N[C@H](CC(=O)N[C@@H](Cc1ccccc1)C(N)=O)Cc1ccccc1) [SEQ ID NO 12]” the “Gelation condition % (w/v)” value (in mQ/PBS 1:0.5) was 1.5% (mQ/PBS 1:0.5) % (w/v).
In the case of “H-Phe-Glu-β^3hPhe-Phe-Lys-Phe-NH2 (H-FE[β3hF]FKF-NH2; SMILES NCCCC[C@H](NC(=O)[C@H](Cc1ccccc1)NC(=O)C[C@H](Cc1ccccc1)NC(=O)[C@H](CCC(=O)O)NC(=O)[C@@H](N)Cc1ccccc1)C(=O)N[C@@H](Cc1ccccc1)C(N)=O) [SEQ ID NO 11]”, the “Gelation condition % (w/v)” value (in PBS) is reported as 2% (PBS) % (w/v).
For “H-Phe-Glu-β^3hPhe-Phe-Lys-NH2 (H-FE[β3hF]FK-NH2; SMILES NCCCC[C@H](NC(=O)[C@H](Cc1ccccc1)NC(=O)C[C@H](Cc1ccccc1)NC(=O)[C@H](CCC(=O)O)NC(=O)[C@@H](N)Cc1ccccc1)C(N)=O) [SEQ ID NO 6]”, the “Gelation condition % (w/v)” value (in PBS) was 3% (PBS) % (w/v).
With “H-Trp-Glu-β^3hPhe-Phe-Gln-Trp-Lys-NH2 (H-WE[β3hF]FQWK-NH2; SMILES NCCCC[C@H](NC(=O)[C@H](Cc1c[nH]c2ccccc12)NC(=O)[C@H](CCC(N)=O)NC(=O)[C@H](Cc1ccccc1)NC(=O)C[C@H](Cc1ccccc1)NC(=O)[C@H](CCC(=O)O)NC(=O)[C@@H](N)Cc1c[nH]c2ccccc12)C(N)=O) [SEQ ID NO 15]” the “Gelation condition % (w/v)” value (in PBS) was 2% (PBS) % (w/v).
For “H-β^3hPhe-Phe-Glu-β^3hPhe-Phe-Lys-NH2 (H-[β3hF]FE[β3hF]FK-NH2; SMILES NCCCC[C@H](NC(=O)[C@H](Cc1ccccc1)NC(=O)C[C@H](Cc1ccccc1)NC(=O)[C@H](CCC(=O)O)NC(=O)[C@H](Cc1ccccc1)NC(=O)C[C@@H](N)Cc1ccccc1)C(N)=O) [SEQ ID NO 10]”, the “Gelation condition % (w/v)” value (in PBS) was 1% (PBS) % (w/v).
With “H-Phe-Gln-β^3hPhe-Phe-Lys-NH2 (H-FQ[β3hF]FK-NH2; SMILES NCCCC[C@H](NC(=O)[C@H](Cc1ccccc1)NC(=O)C[C@H](Cc1ccccc1)NC(=O)[C@H](CCC(N)=O)NC(=O)[C@@H](N)Cc1ccccc1)C(N)=O) [SEQ ID NO 9]” the “Gelation condition % (w/v)” value (in PBS) was 3% (PBS) % (w/v).
For “H-Phe-Glu-Phe-Gln-Phe-Lys-β^3hPhe-Phe-NH2 (H-FEFQFK[β3hF]F-NH2; SMILES NCCCC[C@H](NC(=O)[C@H](Cc1ccccc1)NC(=O)[C@H](CCC(N)=O)NC(=O)[C@H](Cc1ccccc1)NC(=O)[C@H](CCC(=O)O)NC(=O)[C@@H](N)Cc1ccccc1)C(=O)N[C@H](CC(=O)N[C@@H](Cc1ccccc1)C(N)=O)Cc1ccccc1) [SEQ ID NO 21]”, the “Gelation condition % (w/v)” value (in mQ/PBS 1:1) was 1.5% (mQ/PBS 1:1) % (w/v).
With “H-Phe-Glu-β^3hCha-Phe-Gln-β^3hCha-Phe-Lys-OH (H-FE[β3hCha]FQ[β3hCha]FK-OH) [SEQ ID NO 8]” the “Gelation condition % (w/v)” value (in mQ) was 3% (mQ) % (w/v).
In the case of “H-β^3hPhe-Phe-Glu-Phe-Gln-Phe-Lys-NH2 (H-[β3hF]FEFQFK-NH2; SMILES NCCCC[C@H](NC(=O)[C@H](Cc1ccccc1)NC(=O)[C@H](CCC(N)=O)NC(=O)[C@H](Cc1ccccc1)NC(=O)[C@H](CCC(=O)O)NC(=O)[C@H](Cc1ccccc1)NC(=O)C[C@@H](N)Cc1ccccc1)C(N)=O) [SEQ ID NO 17]”, the “Gelation condition % (w/v)” value (in PBS) is reported as 2% (PBS) % (w/v).
With “H-Phe-Glu-β^3hPhe-Phe-Gln-Phe-Lys-Phe-NH2 (H-FE[β3hF]FQFKF-NH2; SMILES NCCCC[C@H](NC(=O)[C@H](Cc1ccccc1)NC(=O)[C@H](CCC(N)=O)NC(=O)[C@H](Cc1ccccc1)NC(=O)C[C@H](Cc1ccccc1)NC(=O)[C@H](CCC(=O)O)NC(=O)[C@@H](N)Cc1ccccc1)C(=O)N[C@@H](Cc1ccccc1)C(N)=O) [SEQ ID NO 20]” the “Gelation condition % (w/v)” value (in mQ/PBS 1:1) was 1.5% (mQ/PBS 1:1) % (w/v).
For “H-Phe-Gln-β^3hPhe-Phe-Gln-β^3hPhe-Phe-Lys-OH (H-FQ[β3hF]FQ[β3hF]FK-OH; SMILES NCCCC[C@H](NC(=O)[C@H](Cc1ccccc1)NC(=O)C[C@H](Cc1ccccc1)NC(=O)[C@H](CCC(N)=O)NC(=O)[C@H](Cc1ccccc1)NC(=O)C[C@H](Cc1ccccc1)NC(=O)[C@H](CCC(N)=O)NC(=O)[C@@H](N)Cc1ccccc1)C(=O)O) [SEQ ID NO 5]”, the “Gelation condition % (w/v)” value (in mQ) was 2% (mQ) % (w/v).
With “H-Phe-Glu-β^3Phe-Tyr-Gln-β^3hPhe-Tyr-Lys-OH (H-FE[β3hF]YQ[β3hF]YK-OH) [SEQ ID NO 4]” the “Gelation condition % (w/v)” value (in PBS) was 2% (PBS) % (w/v).
With “H-Phe-Glu-β^3hPhe-Phe-Lys-β^3hPhe-Phe-NH2 (H-FE[β3hF]FK[β3hF]F-NH2; SMILES NCCCC[C@H](NC(=O)[C@H](Cc1ccccc1)NC(=O)C[C@H](Cc1ccccc1)NC(=O)[C@H](CCC(=O)O)NC(=O)[C@@H](N)Cc1ccccc1)C(=O)N[C@H](CC(=O)N[C@@H](Cc1ccccc1)C(N)=O)Cc1ccccc1) [SEQ ID NO 16]” the “Gelation condition % (w/v)” value (in mQ) was 2% (mQ) % (w/v).
In the case of “H-Phe-Glu-β^3hPhe-Phe-Gln-Phe-Gln-β^3hPhe-Phe-Lys-NH2 (H-FE[β3hF]FQFQ[β3hF]FK-NH2; SMILES NCCCC[C@H](NC(=O)[C@H](Cc1ccccc1)NC(=O)C[C@H](Cc1ccccc1)NC(=O)[C@H](CCC(N)=O)NC(=O)[C@H](Cc1ccccc1)NC(=O)[C@H](CCC(N)=O)NC(=O)[C@H](Cc1ccccc1)NC(=O)C[C@H](Cc1ccccc1)NC(=O)[C@H](CCC(=O)O)NC(=O)[C@@H](N)Cc1ccccc1)C(N)=O) [SEQ ID NO 22]”, the “time of gelation (self-supporting gel formed)” value is reported as “immediately”, the gelation condition (in mQ water) is reported as 2 w/v % and the “Gelation condition % (w/v)” value (in mQ) is reported as 2% (mQ) % (w/v).
In the case of “H-Phe-Glu-Phe-Gln-β^3hPhe-Phe-Lys-NH2 (H-FEFQ[β3hF]FK-NH2; SMILES NCCCC[C@H](NC(=O)[C@H](Cc1ccccc1)NC(=O)C[C@H](Cc1ccccc1)NC(=O)[C@H](CCC(N)=O)NC(=O)[C@H](Cc1ccccc1)NC(=O)[C@H](CCC(=O)O)NC(=O)[C@@H](N)Cc1ccccc1)C(N)=O) [SEQ ID NO 18]”, the “Gelation condition % (w/v)” value (in PBS) is reported as 2% (PBS) % (w/v).
